Test results: US20260174875A1 (Novo Nordisk A/S, priority 2023, published 2026)
Square brackets hold non-standard residues; d marks the D form. Aib = CC(C)(N)C(=O)O

T1: human GIP receptor (human, UniProt P48546 22-466)
T1 sequence (looked up): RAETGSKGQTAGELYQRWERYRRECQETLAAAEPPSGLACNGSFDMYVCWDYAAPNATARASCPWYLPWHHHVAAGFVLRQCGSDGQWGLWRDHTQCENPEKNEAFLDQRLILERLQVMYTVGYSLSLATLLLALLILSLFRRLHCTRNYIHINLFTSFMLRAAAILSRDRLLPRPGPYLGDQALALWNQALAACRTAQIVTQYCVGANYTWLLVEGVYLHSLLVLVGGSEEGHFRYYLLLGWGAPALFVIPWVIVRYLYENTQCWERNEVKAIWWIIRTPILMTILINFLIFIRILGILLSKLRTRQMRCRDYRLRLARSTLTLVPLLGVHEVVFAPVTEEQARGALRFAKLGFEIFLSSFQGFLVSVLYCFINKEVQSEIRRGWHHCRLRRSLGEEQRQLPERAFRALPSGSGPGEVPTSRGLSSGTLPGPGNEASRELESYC

T2: human amylin-3(a) receptor (human, UniProt P30988 25-474; O60896 24-148)
T2 sequence (looked up) 1: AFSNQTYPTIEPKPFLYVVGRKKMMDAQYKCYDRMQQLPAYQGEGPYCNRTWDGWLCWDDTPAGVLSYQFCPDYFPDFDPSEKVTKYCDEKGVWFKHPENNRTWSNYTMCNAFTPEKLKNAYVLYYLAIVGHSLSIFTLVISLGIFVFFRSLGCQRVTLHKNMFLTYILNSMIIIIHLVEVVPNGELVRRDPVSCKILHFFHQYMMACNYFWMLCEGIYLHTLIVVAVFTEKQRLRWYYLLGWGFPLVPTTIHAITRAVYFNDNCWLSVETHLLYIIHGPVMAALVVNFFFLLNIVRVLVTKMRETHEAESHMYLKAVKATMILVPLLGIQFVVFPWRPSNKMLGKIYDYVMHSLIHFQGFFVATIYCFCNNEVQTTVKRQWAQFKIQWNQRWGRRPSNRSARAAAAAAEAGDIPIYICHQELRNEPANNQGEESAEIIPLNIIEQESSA
T2 sequence (looked up) 2: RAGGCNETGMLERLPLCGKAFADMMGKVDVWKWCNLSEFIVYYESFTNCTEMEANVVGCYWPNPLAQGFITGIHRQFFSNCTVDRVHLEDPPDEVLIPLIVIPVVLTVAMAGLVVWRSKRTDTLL


Tests used:
Experiment in all cases: cell-based or functional assay
human GIP receptor = target: T1, human GIP receptor
[1] = target: T2, human amylin-3(a) receptor
human GLP-1 receptor = human GLP-1 receptor (human, UniProt P43220 24-463)

| hGIPR Potency, no HSA, EC50 [pM] (human GIP receptor) | hAMYR3 Potency, no HSA, EC50 [pM] [1] [pM] | hGLP-1R Potency, no HSA, EC50 [pM] (human GLP-1 receptor) | Binder |
| --- | --- | --- | --- |
| 0.5 | 5 |  | Compound 219 (also: further groups not given here) peptide: Y[Aib]EGTFTSDYSILLEEIAAREFIEWLLAGGPSSGAGQAPGQAEGASHLSTAQTQRLSAELHKLATLPRTETGSGSP-NH2 |
| 9.57 | 7.28 | 16.4 | Compound 210 (also: further groups not given here) peptide: Y[Aib]EGTFTSDYSILLEEQAAREFIEWLLAGGPSSGAGQAPGQAPGASHLSTAQTQRLSAELHKLATLPRTETGSGSP-NH2 |
|  |  | 9 | Compound 217 (also: further groups not given here) peptide: Y[Aib]EGTFTSDYSILLEEIAAREFIEWLLAGGPSSGAGQAPGEAPGASHLSTAQTQRLSAELHKLATLPRTETGSGSP-NH2 |
